The supplement of paper PMC10567573

B1: FAM46D (parent)
chain: LELKFVSSLRRQFEFSVDSFQIVL
B2: HSP90AB1 (parent)
chain: QVANSAFVERVRKRGFEVVYMTEP

Variants of: B1
Experiment: protein stability index of a GFP-peptide fusion (GPS, HEK-293T) (PSI 1-6); higher = more stable
Details: c terminus: a fixed tail appended
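Also: lentivirally expressed fusions sorted by FACS into six bins by GFP to DsRed ratio, PSI derived from sequencing read proportions per bin multiplied by bin number.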

Q: For LELKFVSSLRRQFEFSVDSFQFVL [I22F], which protein stability index is on record?
A: 3.23

Q: Which protein stability index does the source give for LELKFVSSLRRQFEFSVDSFQTVL [I22T] here?
A: 2.21

Q: Which protein stability index does the source give for LELKFVSSLRRQFEFSVDSFQVVL [I22V] here?
A: 3.07

Q: Which protein stability index does the source give for LELKFVSSLRRQFEFSVDSFQWVL [I22W] here?
A: 2.8

Q: Which protein stability index does the source give for LELKFVSSLRRQFEFSVDSFQSVL [I22S] here?
A: 2.36

Q: With LELKFVSSLRRQFEFSVDSFQYVL [I22Y] as the variant, how does the protein stability index read?
A: 3.01

Q: Which protein stability index does the source give for LELKFVSSLRRQFEFSVDSFQMVL [I22M] here?
A: 3.31

Q: Which protein stability index does the source give for LELKFVSSLRRQFEFSVDSFQDVL [I22D] here?
A: 2.6

Q: With LELKFVSSLRRQFEFSVDSFQPVL [I22P] as the variant, how does the protein stability index read?
A: 4.29

Q: With LELKFVSSLRRQFEFSVDSFQKVL [I22K] as the variant, how does the protein stability index read?
A: 1.71

Q: Which protein stability index does the source give for LELKFVSSLRRQFEFSVDSFQEVL [I22E] here?
A: 2.65

Q: With LELKFVSSLRRQFEFSVDSFQGVL [I22G] as the variant, how does the protein stability index read?
A: 3.17

Q: With LELKFVSSLRRQFEFSVDSFQNVL [I22N] as the variant, how does the protein stability index read?
A: 3.28

Q: With LELKFVSSLRRQFEFSVDSFQHVL [I22H] as the variant, how does the protein stability index read?
A: 1.5

Q: With LELKFVSSLRRQFEFSVDSFQLVL [I22L] as the variant, how does the protein stability index read?
A: 2.7

Q: For LELKFVSSLRRQFEFSVDSFQRVL [I22R], which protein stability index is on record?
A: 2.04

Q: For LELKFVSSLRRQFEFSVDSFQAVL [I22A], which protein stability index is on record?
A: 2.26

Q: For LELKFVSSLRRQFEFSVDSFQCVL [I22C], which protein stability index is on record?
A: 2.93

Q: For LELKFVSSLRRQFEFSVDSFSIVL [Q21S], which protein stability index is on record?
A: 2.89

Q: Which protein stability index does the source give for LELKFVSSLRRQFEFSVDSFWIVL [Q21W] here?
A: 2.89

Q: Which protein stability index does the source give for LELKFVSSLRRQFEFSVDSFAIVL [Q21A] here?
A: 2.85

Q: With LELKFVSSLRRQFEFSVDSFLIVL [Q21L] as the variant, how does the protein stability index read?
A: 2.24

Q: With LELKFVSSLRRQFEFSVDSFDIVL [Q21D] as the variant, how does the protein stability index read?
A: 2.69

Q: For LELKFVSSLRRQFEFSVDSFIIVL [Q21I], which protein stability index is on record?
A: 3.59

Q: For LELKFVSSLRRQFEFSVDSFEIVL [Q21E], which protein stability index is on record?
A: 2.47

Q: For LELKFVSSLRRQFEFSVDSFMIVL [Q21M], which protein stability index is on record?
A: 2.78

Q: With LELKFVSSLRRQFEFSVDSFYIVL [Q21Y] as the variant, how does the protein stability index read?
A: 2.8

Q: With LELKFVSSLRRQFEFSVDSFPIVL [Q21P] as the variant, how does the protein stability index read?
A: 2.71

Q: Which protein stability index does the source give for LELKFVSSLRRQFEFSVDSFCIVL [Q21C] here?
A: 3.58

Q: Which protein stability index does the source give for LELKFVSSLRRQFEFSVDSFFIVL [Q21F] here?
A: 2.74

Q: Which protein stability index does the source give for LELKFVSSLRRQFEFSVDSFKIVL [Q21K] here?
A: 3.44

Q: With LELKFVSSLRRQFEFSVDSFHIVL [Q21H] as the variant, how does the protein stability index read?
A: 2.63

Q: With LELKFVSSLRRQFEFSVDSFGIVL [Q21G] as the variant, how does the protein stability index read?
A: 3.02

Q: Which protein stability index does the source give for LELKFVSSLRRQFEFSVDSFNIVL [Q21N] here?
A: 2.75

Q: For LELKFVSSLRRQFEFSVDSFVIVL [Q21V], which protein stability index is on record?
A: 2.67

Q: With LELKFVSSLRRQFEFSVDSFRIVL [Q21R] as the variant, how does the protein stability index read?
A: 3.02

Q: For LELKFVSSLRRQFEFSVDSFTIVL [Q21T], which protein stability index is on record?
A: 2.68

Q: For LELKFVSSLRRQFEFSVDSFQIYL [V23Y], which protein stability index is on record?
A: 3.37

Q: With LELKFVSSLRRQFEFSVDSFQIHL [V23H] as the variant, how does the protein stability index read?
A: 2.67

Q: For LELKFVSSLRRQFEFSVDSFQIWL [V23W], which protein stability index is on record?
A: 3.15

Q: For LELKFVSSLRRQFEFSVDSFQIFL [V23F], which protein stability index is on record?
A: 1.98

Q: With LELKFVSSLRRQFEFSVDSFQIPL [V23P] as the variant, how does the protein stability index read?
A: 2.14

Q: Which protein stability index does the source give for LELKFVSSLRRQFEFSVDSFQIQL [V23Q] here?
A: 2.29

Q: For LELKFVSSLRRQFEFSVDSFQIRL [V23R], which protein stability index is on record?
A: 2.76

Q: For LELKFVSSLRRQFEFSVDSFQIGL [V23G], which protein stability index is on record?
A: 1.94

Q: With LELKFVSSLRRQFEFSVDSFQIEL [V23E] as the variant, how does the protein stability index read?
A: 4.1

Q: For LELKFVSSLRRQFEFSVDSFQINL [V23N], which protein stability index is on record?
A: 3.11

Q: Which protein stability index does the source give for LELKFVSSLRRQFEFSVDSFQIIL [V23I] here?
A: 2.6

Q: For LELKFVSSLRRQFEFSVDSFQITL [V23T], which protein stability index is on record?
A: 2.62

Q: With LELKFVSSLRRQFEFSVDSFQILL [V23L] as the variant, how does the protein stability index read?
A: 2.9

Q: For LELKFVSSLRRQFEFSVDSFQIAL [V23A], which protein stability index is on record?
A: 3.08

Q: With LELKFVSSLRRQFEFSVDSFQISL [V23S] as the variant, how does the protein stability index read?
A: 2.88

Q: For LELKFVSSLRRQFEFSVDSIQIVL [F20I], which protein stability index is on record?
A: 3.44

Q: With LELKFVSSLRRQFEFSVDSRQIVL [F20R] as the variant, how does the protein stability index read?
A: 2.22

Q: For LELKFVSSLRRQFEFSVDSDQIVL [F20D], which protein stability index is on record?
A: 2.94

Q: With LELKFVSSLRRQFEFSVDSQQIVL [F20Q] as the variant, how does the protein stability index read?
A: 1.61

Q: For LELKFVSSLRRQFEFSVDSMQIVL [F20M], which protein stability index is on record?
A: 2.58

Q: Which protein stability index does the source give for LELKFVSSLRRQFEFSVDSTQIVL [F20T] here?
A: 1.62

Q: Which protein stability index does the source give for LELKFVSSLRRQFEFSVDSNQIVL [F20N] here?
A: 3.48

Q: With LELKFVSSLRRQFEFSVDSLQIVL [F20L] as the variant, how does the protein stability index read?
A: 2.59

Q: For LELKFVSSLRRQFEFSVDSKQIVL [F20K], which protein stability index is on record?
A: 3.31

Q: With LELKFVSSLRRQFEFSVDSWQIVL [F20W] as the variant, how does the protein stability index read?
A: 3.5

Q: With LELKFVSSLRRQFEFSVDSPQIVL [F20P] as the variant, how does the protein stability index read?
A: 3.04

Q: For LELKFVSSLRRQFEFSVDSHQIVL [F20H], which protein stability index is on record?
A: 2.62

Q: For LELKFVSSLRRQFEFSVDSAQIVL [F20A], which protein stability index is on record?
A: 2.99

Q: For LELKFVSSLRRQFEFSVDSGQIVL [F20G], which protein stability index is on record?
A: 2.96

Q: With LELKFVSSLRRQFEFSVDSYQIVL [F20Y] as the variant, how does the protein stability index read?
A: 3.11

Q: For LELKFVSSLRRQFEFSVDSSQIVL [F20S], which protein stability index is on record?
A: 2.55

Q: With LELKFVSSLRRQFEFSVDSEQIVL [F20E] as the variant, how does the protein stability index read?
A: 3.3

Q: Which protein stability index does the source give for LELKFVSSLRRQFEFSVDSCQIVL [F20C] here?
A: 2.73

Q: For LELKFVSSLRRQFEFSVDSFQIVR [L24R], which protein stability index is on record?
A: 2.73

Q: With LELKFVSSLRRQFEFSVDSFQIVK [L24K] as the variant, how does the protein stability index read?
A: 2.35

Q: With LELKFVSSLRRQFEFSVDSFQIVA [L24A] as the variant, how does the protein stability index read?
A: 2.78

Q: With LELKFVSSLRRQFEFSVDSFQIVV [L24V] as the variant, how does the protein stability index read?
A: 1.77

Q: With LELKFVSSLRRQFEFSVDSFQIVM [L24M] as the variant, how does the protein stability index read?
A: 2.73

Q: For LELKFVSSLRRQFEFSVDSFQIVD [L24D], which protein stability index is on record?
A: 1.78

Q: Which protein stability index does the source give for LELKFVSSLRRQFEFSVDSFQIVS [L24S] here?
A: 3.63

Q: For LELKFVSSLRRQFEFSVDSFQIVG [L24G], which protein stability index is on record?
A: 2.6

Q: Which protein stability index does the source give for LELKFVSSLRRQFEFSVDSFQIVF [L24F] here?
A: 3.74

Q: Which protein stability index does the source give for LELKFVSSLRRQFEFSVDSFQIVQ [L24Q] here?
A: 2.27

Q: For LELKFVSSLRRQFEFSVDSFQIVI [L24I], which protein stability index is on record?
A: 3.26

Q: For LELKFVSSLRRQFEFSVDSFQIVW [L24W], which protein stability index is on record?
A: 5.02

Q: For LELKFVSSLRRQFEFSVDSFQIVC [L24C], which protein stability index is on record?
A: 3.35

Q: For LELKFVSSLRRQFEFSVDSFQIVN [L24N], which protein stability index is on record?
A: 2.39

Q: With LELKFVSSLRRQFEFSVDSFQIVY [L24Y] as the variant, how does the protein stability index read?
A: 2.7

Q: Which protein stability index does the source give for LELKFVSSLRRQFEFSVDSFQIVP [L24P] here?
A: 2.58

Q: Which protein stability index does the source give for LELKFVSSLRRQFEFSVDSFQIVE [L24E] here?
A: 3.4

Q: Which protein stability index does the source give for LELKFVSSLRRQFEFSVDSFQIVH [L24H] here?
A: 4.63

Q: For LELKFVSSLRRQFEFSVDTFQIVL [S19T], which protein stability index is on record?
A: 2.43

Q: With LELKFVSSLRRQFEFSVDWFQIVL [S19W] as the variant, how does the protein stability index read?
A: 3.19

Q: With LELKFVSSLRRQFEFSVDYFQIVL [S19Y] as the variant, how does the protein stability index read?
A: 2.75

Q: With LELKFVSSLRRQFEFSVDVFQIVL [S19V] as the variant, how does the protein stability index read?
A: 2.12

Variants of: B2
Experiment: as above
Details: c terminus: a fixed tail appended

Q: For QVANSAFVERVRKIGFEVVYMTEP [R14I], which protein stability index is on record?
A: 2.56

Q: For QMANSAFVERVRKRGFEVVYMTEP [V2M], which protein stability index is on record?
A: 2.18
